Target: T1, TSC1 (hamartin), endogenous human (human (endogenous in HeLa), UniProt Q92574 1-1164)
T1 sequence (looked up): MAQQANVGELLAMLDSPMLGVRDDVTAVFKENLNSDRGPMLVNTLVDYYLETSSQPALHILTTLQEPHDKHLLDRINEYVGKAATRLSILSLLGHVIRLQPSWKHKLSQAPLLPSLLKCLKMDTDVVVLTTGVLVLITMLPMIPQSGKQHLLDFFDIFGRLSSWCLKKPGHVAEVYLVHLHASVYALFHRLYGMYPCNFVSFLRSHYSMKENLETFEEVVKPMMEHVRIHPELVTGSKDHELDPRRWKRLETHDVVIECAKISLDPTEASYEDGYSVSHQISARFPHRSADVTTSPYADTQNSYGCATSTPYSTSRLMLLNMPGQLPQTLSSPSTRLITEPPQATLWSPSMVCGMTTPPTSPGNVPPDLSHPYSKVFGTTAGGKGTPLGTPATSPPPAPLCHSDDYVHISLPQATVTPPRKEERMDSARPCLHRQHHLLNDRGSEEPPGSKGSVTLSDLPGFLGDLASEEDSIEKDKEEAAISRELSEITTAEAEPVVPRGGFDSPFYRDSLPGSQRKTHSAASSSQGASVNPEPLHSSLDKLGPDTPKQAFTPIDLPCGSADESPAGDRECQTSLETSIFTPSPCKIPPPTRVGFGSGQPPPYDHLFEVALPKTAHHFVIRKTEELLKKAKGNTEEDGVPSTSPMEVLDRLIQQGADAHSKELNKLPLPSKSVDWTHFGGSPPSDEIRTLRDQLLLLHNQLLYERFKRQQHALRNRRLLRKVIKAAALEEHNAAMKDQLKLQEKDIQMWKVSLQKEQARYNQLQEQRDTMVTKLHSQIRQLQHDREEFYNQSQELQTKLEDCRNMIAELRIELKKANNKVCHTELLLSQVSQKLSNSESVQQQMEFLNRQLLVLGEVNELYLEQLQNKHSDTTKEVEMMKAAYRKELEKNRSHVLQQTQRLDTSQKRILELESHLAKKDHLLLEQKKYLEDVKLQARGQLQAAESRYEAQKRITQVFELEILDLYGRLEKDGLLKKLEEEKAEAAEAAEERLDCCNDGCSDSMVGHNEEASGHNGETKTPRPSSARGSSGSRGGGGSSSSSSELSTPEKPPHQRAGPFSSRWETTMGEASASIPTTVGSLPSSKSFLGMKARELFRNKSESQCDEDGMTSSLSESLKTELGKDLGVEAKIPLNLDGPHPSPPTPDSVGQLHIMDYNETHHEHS
Test: affinity purification with mass spectrometry

B1: TSC2 (tuberin), endogenous human (natural protein)
chain: not shown
stoichiometry N: ~1

Source: PMC3693578 (Molecular cell, 2012)
